± gives the standard deviation of the averaged measurements.
Experiment: total protein half-life in vivo (active degradation + dilution); higher = more stable protein
[1] = E. coli NCM3722 delta-clpP delta-lon delta-hslV, growth: N-lim chemostat, doubling time 6 h
[2] = E. coli NCM3722 delta-clpP, growth: N-lim chemostat, doubling time 6 h
[3] = E. coli NCM3722 delta-lon, growth: N-lim chemostat, doubling time 6 h
[4] = E. coli NCM3722 delta-smpB, growth: N-lim chemostat, doubling time 6 h
[5] = wild type E. coli NCM3722, growth: C-lim chemostat, doubling time 3 h
[6] = wild type E. coli NCM3722, growth: N-lim chemostat, doubling time 12 h
[7] = wild type E. coli NCM3722, growth: P-lim chemostat, doubling time 6 h
[8] = wild type E. coli NCM3722, growth: P-lim chemostat, doubling time 12 h
[9] = E. coli NCM3722 delta-hslV, growth: N-lim chemostat, doubling time 6 h
[10] = wild type E. coli NCM3722, growth: C-lim chemostat, doubling time 6 h
[11] = wild type E. coli NCM3722, growth: C-lim chemostat, doubling time 12 h
[12] = wild type E. coli NCM3722, growth: N-lim chemostat, doubling time 6 h

Sequence	total protein half-life in vivo [1] [h]	total protein half-life in vivo [2] [h]	total protein half-life in vivo [3] [h]	total protein half-life in vivo [4] [h]	total protein half-life in vivo [5] [h]	total protein half-life in vivo [6] [h]	total protein half-life in vivo [7] [h]	total protein half-life in vivo [8] [h]	total protein half-life in vivo [9] [h]	total protein half-life in vivo [10] [h]	total protein half-life in vivo [11] [h]	total protein half-life in vivo [12] [h]
MNTTTPMGMLQQPRPFFMIFFVELWERFGYYGVQGVLAVFFVKQLGFSQEQAFVTFGAFAALVYGLISIGGYVGDHLLGTKRTIVLGALVLAIGYFMTGMSLLKPDLIFIALGTIAVGNGLFKANPASLLSKCYPPKDPRLDGAFTLFYMSINIGSLIALSLAPVIADRFGYSVTYNLCGAGLIIALLVYIACRGMVKDIGSEPDFRPMSFSKLLYVLLGSVVMIFVCAWLMHNVEVANLVLIVLSIVVTIIFFRQAFKLDKTGRNKMFVAFVLMLEAVVFYILYAQMPTSLNFFAINNVHHEILGFSINPVSFQALNPFWVVLASPILAGIYTHLGNKGKDLSMPMKFTLGMFMCSLGFLTAAAAGMWFADAQGLTSPWFIVLVYLFQSLGELFISALGLAMIAALVPQHLMGFILGMWFLTQAAAFLLGGYVATFTAVPDNITDPLETLPVYTNVFGKIGLVTLGVAVVMLLMVPWLKRMIATPESH	6.66 ± 0.32	6.8 ± 0.1	5.78 ± 0.79	> 8	> 4	6.12	6.47	11.1 ± 1.4	–	–	–	–
MNTVCTHCQAINRIPDDRIEDAAKCGRCGHDLFDGEVINATGETLDKLLKDDLPVVIDFWAPWCGPCRNFAPIFEDVAQERSGKVRFVKVNTEAERELSSRFGIRSIPTIMIFKNGQVVDMLNGAVPKAPFDSWLNESL [P0AGG4]	5.02 ± 0.31	2.89 ± 0.54	5.32 ± 0.43	2.48 ± 1.3	1.6 ± 0.2	3.44 ± 0.91	2.24 ± 0.53	4.54 ± 0.14	2.37 ± 0.6	3.09 ± 0.67	5.03 ± 1.5	2.26 ± 0.083
MNTVRSEKDSMGAIDVPADKLWGAQTQRSLEHFRISTEKMPTSLIHALALTKRAAAKVNEDLGLLSEEKASAIRQAADEVLAGQHDDEFPLAIWQTGSGTQSNMNMNEVLANRASELLGGVRGMERKVHPNDDVNKSQSSNDVFPTAMHVAALLALRKQLIPQLKTLTQTLNEKSRAFADIVKIGRTHLQDATPLTLGQEISGWVAMLEHNLKHIEYSLPHVAELALGGTAVGTGLNTHPEYARRVADELAVITCAPFVTAPNKFEALATCDALVQAHGALKGLAASLMKIANDVRWLASGPRCGIGEISIPENEPGSSIMPGKVNPTQCEALTMLCCQVMGNDVAINMGGASGNFELNVFRPMVIHNFLQSVRLLADGMESFNKHCAVGIEPNRERINQLLNESLMLVTALNTHIGYDKAAEIAKKAHKEGLTLKAAALALGYLSEAEFDSWVRPEQMVGSMKAGR	4.65 ± 0.1	4.64 ± 0.49	4.69 ± 0.13	4.11 ± 0.091	3.18 ± 0.23	7.19 ± 0.16	5.82 ± 0.21	12.6 ± 0.33	4.42 ± 0.081	5.9 ± 0.12	9.94 ± 0.14	4.59 ± 0.14
MNVFNPAQFRAQFPALQDAGVYLDSAATALKPEAVVEATQQFYSLSAGNVHRSQFAEAQRLTARYEAAREKVAQLLNAPDDKTIVWTRGTTESINMVAQCYARPRLQPGDEIIVSVAEHHANLVPWLMVAQQTGAKVVKLPLNAQRLPDVDLLPELITPRSRILALGQMSNVTGGCPDLARAITFAHSAGMVVMVDGAQGAVHFPADVQQLDIDFYAFSGHKLYGPTGIGVLYGKSELLEAMSPWLGGGKMVHEVSFDGFTTQSAPWKLEAGTPNVAGVIGLSAALEWLADYDINQAESWSRSLATLAEDALAKRPGFRSFRCQDSSLLAFDFAGVHHSDMVTLLAEYGIALRAGQHCAQPLLAELGVTGTLRASFAPYNTKSDVDALVNAVDRALELLVD	4.06 ± 0.23	3.13 ± 0.13	4.38 ± 0.57	3.52 ± 0.088	2.97 ± 0.082	6.8 ± 0.74	5.86 ± 0.26	13.3 ± 3.4	3.71 ± 0.079	5.59 ± 0.13	10.8 ± 2.4	4.11 ± 0.22
MNVFSQTQRYKALFWLSLFHLLVITSSNYLVQLPVSILGFHTTWGAFSFPFIFLATDLTVRIFGAPLARRIIFAVMIPALLISYVISSLFYMGSWQGFGALAHFNLFVARIATASFMAYALGQILDVHVFNRLRQSRRWWLAPTASTLFGNVSDTLAFFFIAFWRSPDAFMAEHWMEIALVDYCFKVLISIVFFLPMYGVLLNMLLKRLADKSEINALQAS	–	–	–	–	2.3	–	–	–	–	–	–	–
MNVIRTEIEDVLILEPRVFGDDRGFFYESFNQSAFEHILGYPVSFVQDNHSRSSKNVLRGLHFQRGEYAQDKLVRCTHGAVFDVAVDIRPNSVSFGKWVGVLLSADNKQQLWIPKGFAHGFLVLSDIAEFQYKTTNYYHPESDCGICWNDERIAIDWPQTSGLILSPKDERLFTLDELIRLKLIA	6.28	–	3.33 ± 0.14	–	–	3.7	–	–	–	–	–	–
MNVLRSGIVTMLLLAAFSVQAACTWPAWEQFKKDYISQEGRVIDPSDARKITTSEGQSYGMFSALAANDRAAFDNILDWTQNNLAQGSLKERLPAWLWGKKENSKWEVLDSNSASDGDVWMAWSLLEAGRLWKEQRYTDIGSALLKRIAREEVVTVPGLGSMLLPGKVGFAEDNSWRFNPSYLPPTLAQYFTRFGAPWTTLRETNQRLLLETAPKGFSPDWVRYEKDKGWQLKAEKTLISSYDAIRVYMWVGMMPDSDPQKARMLNRFKPMATFTEKNGYPPEKVDVATGKAQGKGPVGFSAAMLPFLQNRDAQAVQRQRVADNFPGSDAYYNYVLTLFGQGWDQHRFRFSTKGELLPDWGQECANSH	5.88 ± 0.14	6.89 ± 0.16	6.5 ± 0.64	5.684 ± 0.013	3.19 ± 0.12	14 ± 0.56	5.86 ± 0.12	12.7 ± 0.61	6.78 ± 0.68	6.41 ± 0.42	–	6.48 ± 1.2
MNYEIKQEEKRTVAGFHLVGPWEQTVKKGFEQLMMWVDSKNIVPKEWVAVYYDNPDETPAEKLRCDTVVTVPGYFTLPENSEGVILTEITGGQYAVAVARVVGDDFAKPWYQFFNSLLQDSAYEMLPKPCFEVYLNNGAEDGYWDIEMYVAVQPKHH	4.8 ± 0.93	2.75	–	4.26 ± 1.8	2.22 ± 0.21	4.89 ± 0.49	2.6	6.49 ± 0.56	3.39 ± 0.23	3.9 ± 0.048	5.57 ± 0.35	3.16
MNYHQYYPVDIVNGPGTRCTLFVSGCVHECPGCYNKSTWRVNSGQPFTKAMEDQIINDLNDTRIKRQGISLSGGDPLHPQNVPDILKLVQRIRAECPGKDIWVWTGYKLDELNAAQMQVVDLINVLVDGKFVQDLKDPSLIWRGSSNQVVHHLR [P0A9N8]	–	1.08	–	–	–	–	–	–	–	–	2.03	–
MNYQNDDLRIKEIKELLPPVALLEKFPATENAANTVAHARKAIHKILKGNDDRLLVVIGPCSIHDPVAAKEYATRLLALREELKDELEIVMRVYFEKPRTTVGWKGLINDPHMDNSFQINDGLRIARKLLLDINDSGLPAAGEFLDMITPQYLADLMSWGAIGARTTESQVHRELASGLSCPVGFKNGTDGTIKVAIDAINAAGAPHCFLSVTKWGHSAIVNTSGNGDCHIILRGGKEPNYSAKHVAEVKEGLNKAGLPAQVMIDFSHANSSKQFKKQMDVCADVCQQIAGGEKAIIGVMVESHLVEGNQSLESGEPLAYGKSITDACIGWEDTDALLRQLANAVKARRG [P0AB91]	3.65 ± 0.43	2.92 ± 0.049	3.62 ± 0.64	3.01 ± 0.16	3.18 ± 0.28	3.98 ± 0.2	5.41 ± 0.039	10.3 ± 0.3	2.76 ± 0.068	5.81 ± 0.16	10.3 ± 0.25	3.02 ± 0.048
MPACELRPATQYDTDAVYALICELKQAEFDHHAFRVGFNANLRDPNMRYHLALLDGEVVGMIGLHLQFHLHHVNWIGEIQELVVMPQARGLNVGSKLLAWAEEEARQAGAEMTELSTNVKRHDAHRFYLREGYEQSHFRFTKAL	4.67 ± 0.61	2.53 ± 0.34	2.76 ± 0.12	1.58 ± 0.037	1.61 ± 0.22	2.54 ± 0.055	3.65 ± 0.24	6.57 ± 0.13	1.8 ± 0.17	2.49 ± 0.34	2.45	1.93 ± 0.3
MPAPVVLILAAGRGECFLASGGNTHKCIGWRQSPEVAPYRWPFEENGRTFDLAIEPQITTNDLRLMLRLALAGGGITIATQETFRPYIESGKLVSLLDDFLPQFPGFYLYFPQRRNIAPKLRALIDYVKEWRQQLA	4.63	–	–	–	–	–	–	–	–	–	–	–
MPDQTQQFSFKVLTINIHKGFTAFNRRFILPELRDAVRTVSADIVCLQEVMGAHEVHPLHVENWPDTSHYEFLADTMWSDFAYGRNAVYPEGHHGNAVLSRYPIEHYENRDVSVDGAEKRGVLYCRIVPPMTGKAIHVMCVHLGLREAHRQAQLAMLAEWVNELPDGEPVLVAGDFNDWRQKANHPLKVQAGLDEIFTRAHGRPARTFPVQFPLLRLDRIYVKNASASAPTALPLRTWRHLSDHAPLSAEIHL [P0AAW1]	6.17 ± 0.23	6.2 ± 0.43	5.85 ± 0.22	5.57 ± 0.47	2.68 ± 0.41	13.9 ± 0.67	5.16 ± 0.24	11.5 ± 0.52	–	4.96 ± 0.51	10.9 ± 3	5.11 ± 0.57
MPDSRKARRIADPGLQPERTSLAWFRTMLGYGALMALAIKHNWHQAGMLFWISIGILAIVALILWHYTRNRNLMDVTNSDFSQFHVVRDKFLISLAVLSLAILFAVTHIHQLIVFIERVA [P0ADL6]	–	–	–	–	–	8.68	–	–	–	–	–	–
MPELPEVETSRRGIEPHLVGATILHAVVRNGRLRWPVSEEIYRLSDQPVLSVQRRAKYLLLELPEGWIIIHLGMSGSLRILPEELPPEKHDHVDLVMSNGKVLRYTDPRRFGAWLWTKELEGHNVLTHLGPEPLSDDFNGEYLHQKCAKKKTAIKPWLMDNKLVVGVGNIYASESLFAAGIHPDRLASSLSLAECELLARVIKAVLLRSIEQGGTTLKDFLQSDGKPGYFAQELQVYGRKGEPCRVCGTPIVATKHAQRATFYCRQCQK	6.1 ± 0.54	6.39 ± 0.79	6.39 ± 1.2	5.63 ± 0.36	2.58 ± 0.11	12.8 ± 1.4	6.46 ± 0.51	14.2 ± 0.28	6.03	–	12.7 ± 2.8	6.31 ± 0.42
MPENYTPAAAATGTWTEEEIRHQPRAWIRSLTNIDALRSALNNFLEPLLRKENLRIILTGAGTSAFIGDIIAPWLASHTGKNFSAVPTTDLVTNPMDYLNPAHPLLLISFGRSGNSPESVAAVELANQFVPECYHLPITCNEAGALYQNAINSDNAFALLMPAETHDRGFAMTSSITTMMASCLAVFAPETINSQTFRDVADRCQAILTSLGDFSEGVFGYAPWKRIVYLGSGGLQGAARESALKVLELTAGKLAAFYDSPTGFRHGPKSLVDDETLVVVFVSSHPYTRQYDLDLLAELRRDNQAMRVIAIAAESSDIVAAGPHIILPPSRHFIDVEQAFCFLMYAQTFALMQSLHMGNTPDTPSASGTVNRVVQGVIIHPWQA	–	–	–	–	3.44 ± 0.35	–	–	–	–	3.18	5.91	–
MPEPVAEPALNGLRLNLRIVSIVMFNFASYLTIGLPLAVLPGYVHDVMGFSAFWAGLVISLQYFATLLSRPHAGRYADSLGPKKIVVFGLCGCFLSGLGYLTAGLTASLPVISLLLLCLGRVILGIGQSFAGTGSTLWGVGVVGSLHIGRVISWNGIVTYGAMAMGAPLGVVFYHWGGLQALALIIMGVALVAILLAIPRPTVKASKGKPLPFRAVLGRVWLYGMALALASAGFGVIATFITLFYDAKGWDGAAFALTLFSCAFVGTRLLFPNGINRIGGLNVAMICFSVEIIGLLLVGVATMPWMAKIGVLLAGAGFSLVFPALGVVAVKAVPQQNQGAALATYTVFMDLSLGVTGPLAGLVMSWAGVPVIYLAAAGLVAIALLLTWRLKKRPPEHVPEAASSS	–	3.62	–	–	–	–	–	–	–	–	–	–

Reference: the supplement of paper PMC11246515
